Experimental data from PMC11578449 (PLOS Pathogens, 2024).

B1: Ty-BatCoV-HKU4 spike receptor binding domain (residues E372-Y611) (domain or fragment)
chain: EASATGTFIEQPNATECDFSPMLTGVAPQVYNFKRLVFSNCNYNLTKLLSLFAVDEFSCNGISPDSIARGCYSTLTVDYFAYPLSMKSYIRPGSAGNIPLYNYKQSFANPTCRVMASVLANVTITKPHAYGYISKCSRLTGANQDVETPLYINPGEYSICRDFSPGGFSEDGQVFKRTLTQFEGGGLLIGVGTRVPMTDNLQMSFIISVQYGTGTDSVCPMLDLGDSLTITNRLGKCVDY

What was measured:
[1] = target: human dipeptidyl peptidase 4 ectodomain (hDPP4, residues 39-766) (human) (UniProt P27487); test: SPR; BIAcore T200, 25 °C; […]; 1:1 Langmuir binding model
Chain of human dipeptidyl peptidase 4 ectodomain (hDPP4, residues 39-766) (human) (P27487 39-766): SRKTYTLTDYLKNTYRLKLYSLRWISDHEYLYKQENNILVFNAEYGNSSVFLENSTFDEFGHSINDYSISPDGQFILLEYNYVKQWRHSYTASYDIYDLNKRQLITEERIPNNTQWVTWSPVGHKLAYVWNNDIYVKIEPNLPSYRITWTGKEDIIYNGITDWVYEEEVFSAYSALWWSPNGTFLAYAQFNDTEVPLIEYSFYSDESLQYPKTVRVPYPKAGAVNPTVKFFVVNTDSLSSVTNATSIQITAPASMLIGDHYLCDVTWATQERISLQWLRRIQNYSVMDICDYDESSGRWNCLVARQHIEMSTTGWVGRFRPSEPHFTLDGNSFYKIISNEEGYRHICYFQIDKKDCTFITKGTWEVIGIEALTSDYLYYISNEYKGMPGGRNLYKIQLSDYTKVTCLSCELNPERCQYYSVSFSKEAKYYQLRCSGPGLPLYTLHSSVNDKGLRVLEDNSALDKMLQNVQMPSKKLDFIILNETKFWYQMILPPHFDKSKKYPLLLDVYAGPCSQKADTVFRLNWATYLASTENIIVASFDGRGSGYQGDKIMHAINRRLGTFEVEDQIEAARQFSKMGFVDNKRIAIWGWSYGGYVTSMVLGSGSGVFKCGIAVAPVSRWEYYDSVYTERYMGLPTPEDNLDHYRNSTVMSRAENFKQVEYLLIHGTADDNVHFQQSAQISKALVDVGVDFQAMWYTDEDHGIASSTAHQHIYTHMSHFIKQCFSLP

[2] = target: T1, human dipeptidyl peptidase 4 ectodomain (hDPP4, residues 39-766) (human, UniProt P27487 39-766); test: as above; conditions: both partners purified
T1 construct: also called human DPP4
T1 sequence (P27487 39-766): as above

| Molecule | koff [1] | kon [1] | koff [2] | kon [2] |
| --- | --- | --- | --- | --- |
| MjHKU4r-CoV-1 spike receptor binding domain (residues 375-614) (domain or fragment) | 0.00368 s⁻¹ | 17000 M⁻¹ s⁻¹ |  |  |
| B1 |  |  | 0.00684 s⁻¹ | 1070 M⁻¹ s⁻¹ |
